One block for each molecule: values may come before it.
Experiments:
[1] = molecular target: T1, 人TIGIT (hTIGIT) on 293T-hTIGIT cells (human) (UniProt Q495A1); assay: flow cytometry on 293T-hTIGIT cells, secondary antibody alone (background control)
T1 sequence: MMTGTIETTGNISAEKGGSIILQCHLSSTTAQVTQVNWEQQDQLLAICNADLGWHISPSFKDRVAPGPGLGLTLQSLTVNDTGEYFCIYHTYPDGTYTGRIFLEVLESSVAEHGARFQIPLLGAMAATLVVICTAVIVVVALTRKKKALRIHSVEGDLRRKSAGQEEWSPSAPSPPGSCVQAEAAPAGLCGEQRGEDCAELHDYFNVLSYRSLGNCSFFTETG

[2] = molecular target: 食蟹猴TIGIT (Cyno-TIGIT) on 293T-Cyno-TIGIT cells (cynomolgus monkey (Macaca fascicularis)); assay: flow cytometry on 293T-Cyno-TIGIT cells, secondary antibody alone (background control)
[3] = molecular target: T2, TIGIT-hFc蛋白(人TIGIT胞外区与人IgG1 Fc的融合蛋白) (human) (UniProt Q495A1); assay: flow cytometry, blocking of TIGIT-hFc binding to 293T-hPVR cells, hybridoma supernatant
T2 sequence: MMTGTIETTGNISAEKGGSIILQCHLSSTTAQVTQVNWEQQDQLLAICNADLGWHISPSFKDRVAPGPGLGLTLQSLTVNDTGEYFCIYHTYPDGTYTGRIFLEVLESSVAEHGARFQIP

[4] = molecular target: 食蟹猴TIGIT (Cyno-TIGIT) on 293T-Cyno-TIGIT cells (cynomolgus monkey (Macaca fascicularis)); assay: flow cytometry on 293T-Cyno-TIGIT cells, 50 uL hybridoma supernatant, APC anti-mouse IgG Fc
[5] = molecular target: T2, TIGIT-hFc蛋白(人TIGIT胞外区与人IgG1 Fc的融合蛋白) (human); assay: flow cytometry, signal on 293T-hPVR cells with 500 ng TIGIT-hFc and 50 uL hybridoma supernatant
[6] = molecular target: T1, 人TIGIT (hTIGIT) on 293T-hTIGIT cells (human); assay: flow cytometry on 293T-hTIGIT cells, 1.0 ug antibody, APC anti-human IgG Fc
[7] = molecular target: T1, 人TIGIT (hTIGIT) on 293T-hTIGIT cells (human); assay: flow cytometry on 293T-hTIGIT cells, 1.7 ug antibody, APC anti-human IgG Fc
[8] = molecular target: T1, 人TIGIT (hTIGIT) on 293T-hTIGIT cells (human); assay: flow cytometry on 293T-hTIGIT cells, 0.5 ug antibody, APC anti-human IgG Fc

Sequence of 食蟹猴TIGIT (Cyno-TIGIT) on 293T-Cyno-TIGIT cells (cynomolgus monkey (Macaca fascicularis)) (chain, as listed by the source limits assumed): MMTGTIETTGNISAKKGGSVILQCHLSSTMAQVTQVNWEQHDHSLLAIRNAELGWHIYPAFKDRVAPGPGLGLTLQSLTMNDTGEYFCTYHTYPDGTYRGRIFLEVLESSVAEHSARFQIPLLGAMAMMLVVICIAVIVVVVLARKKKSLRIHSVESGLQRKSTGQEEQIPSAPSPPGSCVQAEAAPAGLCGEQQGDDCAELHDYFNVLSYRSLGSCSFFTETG

Geom.Mean [1]: 405
Molecule: APC抗人IgG Fc二抗(Biolegend, Cat409306) (antibody)

Geom.Mean [2]: 1920
Molecule: APC羊抗小鼠IgG Fc二抗(Biolegend, Cat405308) (antibody)

阻断率% [3]: 80.9%
Geom.Mean [4]: 20000
Geom.Mean [5]: 2760
B1: 鼠源抗TIGIT抗体(杂交瘤18A12分泌的抗体) (antibody, V domains shown)
VH: QVQLLESGGGLVQPGGSMKLSCVVSGFTFSNYWMNWVRQSPEKGLEWVAEIRLKSNNYATHYAESVKGRFAISRDDSKSSVYLQMNNLRAEDTGVYYCTRLYYGNYFDYWGQGTTLTVSS
VL: DIQMTQSPASLSASVGETVTITCRASENTYSYLAWYQQKQGKSPQLLVYNAKTLAEGVPSRFSGSGSGTQFSLKITSLQPEDFGSYYCQHHYAFSYTFGGGTKLEMK

Geom.Mean [6]: 10300
Geom.Mean [7]: 12200
Geom.Mean [8]: 8790
B2: 抗TIGIT嵌合抗体(IgG1亚型) (antibody, V domains shown)
VH: QVQLLESGGGLVQPGGSMKLSCVVSGFTFSNYWMNWVRQSPEKGLEWVAEIRLKSNNYATHYAESVKGRFAISRDDSKSSVYLQMNNLRAEDTGVYYCTRLYYGNYFDYWGQGTTLTVSS
VL: DIQMTQSPASLSASVGETVTITCRASENTYSYLAWYQQKQGKSPQLLVYNAKTLAEGVPSRFSGSGSGTQFSLKITSLQPEDFGSYYCQHHYAFSYTFGGGTKLEMKR

Reference: CN114790241A
